Target: the molecule itself
Assay: SDS-PAGE

B1: Cd-HfqHis6 (Clostridium difficile Hfq bearing a C-terminal His-tag) (natural protein, Clostridium difficile strain 630, UniProt Q187T2 1-86, looked up)
chain: MKNTVLNLQDLFLNNARKERIPVTIYLVNGVQVKGLVKGFDSYIILIEGDNRQQNMIYKHAVSTIQPGKYINLTNQNQNNNNNNNR
Q: Which “stoichiometry N” value does the source give for B1 here?
A: 6

Source: paper PMC4174439 (RNA, 2014)
